The values below come from publication PMC9841435, “Structural basis of DNA polymerase θ mediated DNA end joining” (Nucleic Acids Research, 2022).

Read-outs that look alike come from different tables or passages of the source.

For data set [1], the system named is T1, LcPol θ-pol.
T1 construct: gene polq; C-terminal polymerase domain (pseudo-exonuclease, thumb, finger, palm), residues 1950-2714 of 2714; synthetic gene in pETsumo2; His6-SUMO tag removed by SENP2; E. coli Rosetta2 (DE3); mainly monomeric
The experiment in a line: steady-state primer extension, denaturing PAGE of 6-FAM hairpin DNA. The class given is biochemical, Lates calcarifer. As to conditions: Δloop2_b (ΔV2405–R2448); 1 μM hairpin DNA HP [3,9], 200 nM enzyme, 5 mM MgCl2, 100 mM KCl, pH 7.6, 37 °C; read-out: KM, dATP.

The test system of data set [2] is T1, LcPol θ-pol. The description is as above. Conditions: 1 μM hairpin DNA HP [3,9], 1 nM enzyme, 5 mM MgCl2, 100 mM KCl, pH 7.6, 37 °C; read-out: KM, dATP. The format is biochemical, Lates calcarifer.
Data set [3] has as its target T2, LcPol theta-pol WT (Lates calcarifer, UniProt PDB:8EFK_1 1-864). The experiment in a line: cryo-EM; dGTP, Mg2+; complex Ia, 2.4 A, 11 bp visible; EMSA: 10 nM HP [3,9], 25 mM HEPES pH 8.0, 100 mM KCl, 3 mM DTT, 100 ug/ml BSA, 10% glycerol, 2.5 mM EDTA, 0.01% NP40, on ice 20 min; 6% native PAGE, Tris-glycine; Hill fit. As to conditions: protein: recombinant; tags: His6-SUMO, removed by SENP2; primer/template, 20 bp, template 5' overhang 9 nt.

The target in data set [4] is LcPol theta-pol K2299A/K2300A (Lates calcarifer, UniProt PDB:8EFK_1 1-864, K449A;K450A). The experiment in a line: EMSA; 2.5 mM EDTA; affinity similar to WT; EMSA: 10 nM HP [3,9], 25 mM HEPES pH 8.0, 100 mM KCl, 3 mM DTT, 100 ug/ml BSA, 10% glycerol, 2.5 mM EDTA, 0.01% NP40, on ice 20 min; 6% native PAGE, Tris-glycine; Hill fit. As to conditions: protein: recombinant; tags: His6-SUMO, removed by SENP2; label: 5' 6-FAM; hairpin, 3-bp stem, 9-nt dT loop, 5' overhang 8 nt.
LcPol theta-pol K2299A/K2300A, sequence (chain, as listed by the source K449A;K450A | K2299A K2300A K2299A K2300A): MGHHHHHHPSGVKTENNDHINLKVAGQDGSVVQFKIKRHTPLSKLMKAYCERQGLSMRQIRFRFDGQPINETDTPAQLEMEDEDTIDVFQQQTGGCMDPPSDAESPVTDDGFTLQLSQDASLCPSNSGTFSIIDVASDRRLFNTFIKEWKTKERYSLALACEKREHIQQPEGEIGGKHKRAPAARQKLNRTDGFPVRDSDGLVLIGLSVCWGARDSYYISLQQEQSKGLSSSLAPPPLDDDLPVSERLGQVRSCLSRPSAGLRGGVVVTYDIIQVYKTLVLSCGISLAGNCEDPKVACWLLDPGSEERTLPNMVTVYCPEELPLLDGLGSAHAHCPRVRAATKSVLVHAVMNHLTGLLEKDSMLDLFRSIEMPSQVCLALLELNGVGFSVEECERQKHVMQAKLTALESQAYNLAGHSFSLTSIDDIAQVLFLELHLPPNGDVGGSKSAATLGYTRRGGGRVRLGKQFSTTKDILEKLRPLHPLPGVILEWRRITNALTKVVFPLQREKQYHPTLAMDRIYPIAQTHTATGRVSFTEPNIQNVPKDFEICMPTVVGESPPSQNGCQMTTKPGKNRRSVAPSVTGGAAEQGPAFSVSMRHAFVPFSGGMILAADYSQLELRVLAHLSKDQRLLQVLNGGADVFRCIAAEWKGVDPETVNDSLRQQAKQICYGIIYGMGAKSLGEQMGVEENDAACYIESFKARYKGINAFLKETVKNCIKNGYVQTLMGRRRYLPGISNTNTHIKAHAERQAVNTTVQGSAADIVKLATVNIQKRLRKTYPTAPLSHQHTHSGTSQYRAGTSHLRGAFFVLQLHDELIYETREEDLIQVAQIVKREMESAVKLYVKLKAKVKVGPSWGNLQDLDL

The target of data set [5] is LcPol theta-pol R2306A/R2307A (Lates calcarifer, UniProt PDB:8EFK_1 1-864, R456A;R457A). The description is as above. As to conditions: protein: recombinant; tags: His6-SUMO, removed by SENP2; label: 5' 6-FAM; hairpin, 3-bp stem, 9-nt dT loop, 5' overhang 8 nt.
LcPol theta-pol R2306A/R2307A, sequence (chain, as listed by the source R456A;R457A | R2306A R2307A R2306A R2307A): as the sequence (chain, as listed by the source K449A;K450A | K2299A K2300A K2299A K2300A) above, with A449K, A450K, R456A, R457A counted along it
Another data set addresses LcPol theta-pol Δloop2_b (Lates calcarifer, UniProt PDB:8EFK_1 1-864, del555-598). As to the kind of experiment: EMSA; 2.5 mM EDTA; Kd comparable to WT; EMSA: 10 nM HP [3,9], 25 mM HEPES pH 8.0, 100 mM KCl, 3 mM DTT, 100 ug/ml BSA, 10% glycerol, 2.5 mM EDTA, 0.01% NP40, on ice 20 min; 6% native PAGE, Tris-glycine; Hill fit. Conditions: protein: recombinant; tags: His6-SUMO, removed by SENP2; label: 5' 6-FAM; hairpin, 3-bp stem, 9-nt dT loop, 5' overhang 8 nt. (In general: Mobility shift assays separate free from complexed probe on a gel.)

For the next data set, the target named is LcPol theta-pol Δloop2_a (Lates calcarifer, UniProt PDB:8EFK_1 1-864, del552-591). Described as above. Conditions: protein: recombinant; tags: His6-SUMO, removed by SENP2; label: 5' 6-FAM; hairpin, 3-bp stem, 9-nt dT loop, 5' overhang 8 nt.
LcPol theta-pol Δloop2_a, sequence (chain, as listed by the source del552-591 | mutant): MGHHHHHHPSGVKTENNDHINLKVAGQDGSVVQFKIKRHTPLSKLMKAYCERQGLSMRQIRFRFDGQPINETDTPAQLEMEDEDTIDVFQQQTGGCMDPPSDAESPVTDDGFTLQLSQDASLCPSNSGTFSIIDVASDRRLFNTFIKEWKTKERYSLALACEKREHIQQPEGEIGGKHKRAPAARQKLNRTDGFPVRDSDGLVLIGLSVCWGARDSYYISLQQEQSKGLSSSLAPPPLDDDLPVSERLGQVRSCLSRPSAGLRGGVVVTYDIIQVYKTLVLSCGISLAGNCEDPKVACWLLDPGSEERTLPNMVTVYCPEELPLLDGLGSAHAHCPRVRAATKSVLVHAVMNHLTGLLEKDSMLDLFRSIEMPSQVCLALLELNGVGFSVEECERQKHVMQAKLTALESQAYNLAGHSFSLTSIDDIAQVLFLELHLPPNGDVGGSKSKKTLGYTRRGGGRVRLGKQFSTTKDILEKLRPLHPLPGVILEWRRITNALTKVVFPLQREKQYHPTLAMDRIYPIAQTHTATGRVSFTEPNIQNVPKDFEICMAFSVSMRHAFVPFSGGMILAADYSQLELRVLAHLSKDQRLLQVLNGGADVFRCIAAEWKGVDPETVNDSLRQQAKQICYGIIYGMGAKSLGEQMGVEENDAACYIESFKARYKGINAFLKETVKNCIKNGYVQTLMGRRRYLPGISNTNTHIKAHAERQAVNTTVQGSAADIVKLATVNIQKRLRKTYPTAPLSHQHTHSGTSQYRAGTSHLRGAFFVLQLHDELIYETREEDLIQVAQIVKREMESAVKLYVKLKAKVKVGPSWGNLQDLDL
The next data set addresses LcPol theta-pol R2448A (Lates calcarifer, UniProt PDB:8EFK_1 1-864, R598A). Described as above. As to conditions: protein: recombinant; tags: His6-SUMO, removed by SENP2; label: 5' 6-FAM; hairpin, 3-bp stem, 9-nt dT loop, 5' overhang 8 nt.
In data set [6] the target is T2, LcPol theta-pol WT. The experiment in a line: EMSA; 2.5 mM EDTA, no dNTP; EMSA: 10 nM HP [3,9], 25 mM HEPES pH 8.0, 100 mM KCl, 3 mM DTT, 100 ug/ml BSA, 10% glycerol, 2.5 mM EDTA, 0.01% NP40, on ice 20 min; 6% native PAGE, Tris-glycine; Hill fit. Conditions: protein: recombinant; tags: His6-SUMO, removed by SENP2; label: 5' 6-FAM; hairpin, 3-bp stem, 9-nt dT loop, 5' overhang 8 nt.

Another data set has as its target LcPol theta-pol Δloop1 (Lates calcarifer, UniProt PDB:8EFK_1 1-864, del443-461). Described as above. As to conditions: protein: recombinant; tags: His6-SUMO, removed by SENP2; label: 5' 6-FAM; hairpin, 3-bp stem, 9-nt dT loop, 5' overhang 8 nt.
The target of data set [7] is LcPol theta-pol K2299A/K2300A/R2306A/R2307A (Lates calcarifer, UniProt PDB:8EFK_1 1-864, K449A;K450A;R456A;R457A). The data set is described as above. Conditions: protein: recombinant; tags: His6-SUMO, removed by SENP2; label: 5' 6-FAM; hairpin, 3-bp stem, 9-nt dT loop, 5' overhang 8 nt.
LcPol theta-pol K2299A/K2300A/R2306A/R2307A, sequence (chain, as listed by the source with the stated changes): as the sequence (chain, as listed by the source K449A;K450A | K2299A K2300A K2299A K2300A) above, with R456A, R457A counted along it

T2 sequence (chain, as listed by the source): as the sequence (chain, as listed by the source K449A;K450A | K2299A K2300A K2299A K2300A) above, with A449K, A450K counted along it
LcPol theta-pol Δloop1, sequence (chain, as listed by the source del443-461 | mutant): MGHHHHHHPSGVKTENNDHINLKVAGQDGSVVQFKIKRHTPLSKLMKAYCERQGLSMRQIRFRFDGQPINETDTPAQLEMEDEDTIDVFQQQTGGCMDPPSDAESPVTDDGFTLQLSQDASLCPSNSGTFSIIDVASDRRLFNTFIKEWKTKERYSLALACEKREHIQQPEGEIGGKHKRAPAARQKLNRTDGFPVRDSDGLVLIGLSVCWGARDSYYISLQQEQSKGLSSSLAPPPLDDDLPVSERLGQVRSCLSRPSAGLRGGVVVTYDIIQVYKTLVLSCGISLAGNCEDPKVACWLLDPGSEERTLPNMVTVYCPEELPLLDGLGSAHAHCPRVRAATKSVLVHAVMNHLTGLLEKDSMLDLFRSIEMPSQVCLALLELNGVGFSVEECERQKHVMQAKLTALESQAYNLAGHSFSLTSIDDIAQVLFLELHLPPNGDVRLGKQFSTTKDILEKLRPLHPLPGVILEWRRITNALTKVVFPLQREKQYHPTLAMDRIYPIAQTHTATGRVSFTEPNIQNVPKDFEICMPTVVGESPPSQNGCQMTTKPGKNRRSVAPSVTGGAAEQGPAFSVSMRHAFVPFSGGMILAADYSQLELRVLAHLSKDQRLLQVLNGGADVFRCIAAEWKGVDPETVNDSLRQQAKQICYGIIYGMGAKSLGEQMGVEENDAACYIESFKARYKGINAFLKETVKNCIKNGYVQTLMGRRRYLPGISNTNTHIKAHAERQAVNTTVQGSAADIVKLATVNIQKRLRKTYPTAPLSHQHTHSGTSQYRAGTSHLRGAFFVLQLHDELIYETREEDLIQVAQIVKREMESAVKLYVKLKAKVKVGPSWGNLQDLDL
LcPol theta-pol R2448A, sequence (chain, as listed by the source R598A | R2448A R2448A): as the sequence (chain, as listed by the source K449A;K450A | K2299A K2300A K2299A K2300A) above, with A449K, A450K, R598A counted along it
LcPol theta-pol Δloop2_b, sequence (chain, as listed by the source del555-598 | mutant): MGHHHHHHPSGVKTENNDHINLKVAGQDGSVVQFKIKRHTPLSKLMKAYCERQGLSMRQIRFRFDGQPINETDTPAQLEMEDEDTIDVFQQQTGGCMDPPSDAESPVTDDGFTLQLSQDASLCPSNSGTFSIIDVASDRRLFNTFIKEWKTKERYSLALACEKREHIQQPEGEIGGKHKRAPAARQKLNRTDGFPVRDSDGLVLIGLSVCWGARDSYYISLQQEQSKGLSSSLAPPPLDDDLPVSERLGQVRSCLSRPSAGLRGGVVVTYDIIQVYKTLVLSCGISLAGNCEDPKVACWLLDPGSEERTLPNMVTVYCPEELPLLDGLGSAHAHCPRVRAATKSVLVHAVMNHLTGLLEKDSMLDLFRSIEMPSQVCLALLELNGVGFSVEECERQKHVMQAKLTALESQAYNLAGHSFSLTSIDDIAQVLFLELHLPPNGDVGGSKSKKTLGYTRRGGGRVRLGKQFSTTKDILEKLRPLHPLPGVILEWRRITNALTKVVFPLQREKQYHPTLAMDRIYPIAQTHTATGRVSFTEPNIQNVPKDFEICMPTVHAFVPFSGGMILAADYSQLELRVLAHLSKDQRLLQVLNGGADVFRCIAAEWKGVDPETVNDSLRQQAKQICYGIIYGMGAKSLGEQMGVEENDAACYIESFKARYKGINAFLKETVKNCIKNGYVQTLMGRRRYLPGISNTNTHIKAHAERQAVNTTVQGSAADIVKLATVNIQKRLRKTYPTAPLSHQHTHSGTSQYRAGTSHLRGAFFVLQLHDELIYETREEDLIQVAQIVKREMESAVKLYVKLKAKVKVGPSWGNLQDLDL

For orientation: Km means the substrate concentration at which the rate is half of its maximum. Turning to `Nc1ncnc2c1ncn2[C@H]1C[C@H](O)[C@@H](COP(=O)(O)OP(=O)(O)OP(=O)(O)O)O1` [dATP], the Michaelis-Menten constant (Km) with LcPol θ-pol [1] was determined as 157 µM; with LcPol θ-pol [2] it was 12 µM.

B1: 20/29 mer dsDNA, ddA-terminated primer (dsDNA)
DNA 1: TGCTGTGAGGCATCCGTAGA
DNA 2: GCAGTCAGCTCTACGGATGCCTCACAGCA
modifications: 3'-terminal dideoxy-A on primer
For the molecule B1, the binding result with LcPol theta-pol WT [3] is given as “binds”.
As usually defined, the Kd is the equilibrium constant for the complex coming apart. TTTTTTTTGGCTTTTTTTTTGCC (structured_DNA) [HP [3,9]]: the binding result (in data set [4]; in data set [5]; with LcPol theta-pol Δloop2_b; with LcPol theta-pol Δloop2_a; with LcPol theta-pol R2448A) was “binds” each time. For the same molecule, the dissociation constant Kd with LcPol theta-pol WT [6] is 29 nM; with LcPol theta-pol Δloop1, 138 nM; in [7], 50 nM.
